According to article doi:10.1101/2024.04.20.590211:
“And” between values parts separate entries of the source, which are not always exact repeats. Equal values may be shown once.

Columns and labels:
[1] = biological target: FluPolB, influenza B/Memphis/2003 polymerase heterotrimer (wild type) (influenza B virus B/Memphis/2003) (UniProt Q5V8Z9); assay: mass photometry
[2] = biological target: FluPolA/H7N9-WT, wild-type influenza A/Zhejiang/DTID-ZJU01/2013(H7N9) polymerase heterotrimer (influenza A virus A/Zhejiang/DTID-ZJU01/2013(H7N9)) (UniProt M9TI86); assay: SEC

Substance	fraction of dimers [1]	stoichiometry N [1]	stoichiometry N [2]
FluPolB, influenza B/Memphis/2003 polymerase heterotrimer (wild type) (from UniProt Q5V8Z9;Q5V8Y6;Q5V8X3) (complex)	7% and 15%	2	–
FluPolA/H7N9-WT, wild-type influenza A/Zhejiang/DTID-ZJU01/2013(H7N9) polymerase heterotrimer (from UniProt M9TI86;M9TLW3;X5F427) (complex)	–	–	2
